Data published in patent US20230365675A1 (published 2023).

Columns and labels:
[1] = molecular target: CD33-GFP fusion protein, wild type (WT), on 293FT cells (UniProt P20138); test: FACS, WT CD33-GFP on 293FT cells
[2] = molecular target: Mutant CD33-GFP JS23 (L23N) on 293FT cells (UniProt P20138); test: FACS, mutant CD33-GFP on 293FT cells
[3] = molecular target: Mutant CD33-GFP JS24 (Q24E) on 293FT cells (UniProt P20138); test: FACS, mutant CD33-GFP on 293FT cells
[4] = molecular target: Mutant CD33-GFP JS25 (V25M) on 293FT cells (UniProt P20138); test: FACS, mutant CD33-GFP on 293FT cells
Sequence of Mutant CD33-GFP JS25 (V25M) on 293FT cells (P20138 18-364 V25M): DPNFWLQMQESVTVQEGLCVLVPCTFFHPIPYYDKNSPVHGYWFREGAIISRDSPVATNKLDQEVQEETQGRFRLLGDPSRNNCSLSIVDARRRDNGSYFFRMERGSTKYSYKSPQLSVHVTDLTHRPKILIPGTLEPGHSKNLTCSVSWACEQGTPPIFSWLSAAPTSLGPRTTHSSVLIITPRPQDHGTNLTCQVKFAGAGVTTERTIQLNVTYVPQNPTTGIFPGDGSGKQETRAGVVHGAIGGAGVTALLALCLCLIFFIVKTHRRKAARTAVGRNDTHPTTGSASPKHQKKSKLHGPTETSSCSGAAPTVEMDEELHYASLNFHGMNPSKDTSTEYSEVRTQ

[5] = molecular target: Mutant CD33-GFP JS28 (S28L) on 293FT cells (UniProt P20138); test: FACS, mutant CD33-GFP on 293FT cells
Sequence of Mutant CD33-GFP JS28 (S28L) on 293FT cells (P20138 18-364 S28L): as the sequence (P20138 18-364 V25M) above, with M8V, S11L counted along it

[6] = molecular target: Mutant CD33-GFP M10 (Y127A) on 293FT cells (UniProt P20138); test: FACS, mutant CD33-GFP on 293FT cells
Sequence of Mutant CD33-GFP M10 (Y127A) on 293FT cells (P20138 18-364 Y127A): as the sequence (P20138 18-364 V25M) above, with M8V, Y110A counted along it

[7] = molecular target: Mutant CD33-GFP M11 (L78T) on 293FT cells (UniProt P20138); test: FACS, mutant CD33-GFP on 293FT cells
Sequence of Mutant CD33-GFP M11 (L78T) on 293FT cells (P20138 18-364 L78T): as the sequence (P20138 18-364 V25M) above, with M8V, L61T counted along it

[8] = molecular target: Mutant CD33-GFP M12 (G88S) on 293FT cells (UniProt P20138); test: FACS, mutant CD33-GFP on 293FT cells
Sequence of Mutant CD33-GFP M12 (G88S) on 293FT cells (P20138 18-364 G88S): as the sequence (P20138 18-364 V25M) above, with M8V, G71S counted along it

[9] = molecular target: Mutant CD33-GFP M13 (R91E) on 293FT cells (UniProt P20138); test: FACS, mutant CD33-GFP on 293FT cells
Sequence of Mutant CD33-GFP M13 (R91E) on 293FT cells (P20138 18-364 R91E): as the sequence (P20138 18-364 V25M) above, with M8V, R74E counted along it

[10] = molecular target: Mutant CD33-GFP M14 (E170R) on 293FT cells (UniProt P20138); test: FACS, mutant CD33-GFP on 293FT cells
Sequence of Mutant CD33-GFP M14 (E170R) on 293FT cells (P20138 18-364 E170R): as the sequence (P20138 18-364 V25M) above, with M8V, E153R counted along it

[11] = molecular target: Mutant CD33-GFP M15 (Q171A) on 293FT cells (UniProt P20138); test: FACS, mutant CD33-GFP on 293FT cells
Sequence of Mutant CD33-GFP M15 (Q171A) on 293FT cells (P20138 18-364 Q171A): as the sequence (P20138 18-364 V25M) above, with M8V, Q154A counted along it

[12] = molecular target: Mutant CD33-GFP M16 (4889AII) on 293FT cells (UniProt P20138); test: FACS, mutant CD33-GFP on 293FT cells
[13] = molecular target: Mutant CD33-GFP M17 (F21Y) on 293FT cells (UniProt P20138); test: FACS, mutant CD33-GFP on 293FT cells
Sequence of Mutant CD33-GFP M17 (F21Y) on 293FT cells (P20138 18-364 F21Y): as the sequence (P20138 18-364 V25M) above, with F4Y, M8V counted along it

[14] = molecular target: Mutant CD33-GFP M18 (353AAL) on 293FT cells (UniProt P20138); test: FACS, mutant CD33-GFP on 293FT cells
[15] = molecular target: Mutant CD33-GFP M19 (348ATAI) on 293FT cells (UniProt P20138); test: FACS, mutant CD33-GFP on 293FT cells
[16] = molecular target: Mutant CD33-GFP M4 (R122D) on 293FT cells (UniProt P20138); test: FACS, mutant CD33-GFP on 293FT cells
Sequence of Mutant CD33-GFP M4 (R122D) on 293FT cells (P20138 18-364 R122D): as the sequence (P20138 18-364 V25M) above, with M8V, R105D counted along it

[17] = molecular target: Mutant CD33-GFP M5 (AEAD), quadruple mutant, on 293FT cells (UniProt P20138); test: FACS, mutant CD33-GFP on 293FT cells
Sequence of Mutant CD33-GFP M5 (AEAD), quadruple mutant, on 293FT cells (P20138 other isoform, or with tags, fused parts or gaps mutant): as the sequence (P20138 18-364 V25M) above, with W5A, M8V, H28E, N82A, R105D counted along it

[18] = molecular target: Mutant CD33-GFP M9 (Y49, 50A) on 293FT cells (UniProt P20138); test: FACS, mutant CD33-GFP on 293FT cells
Sequence of Mutant CD33-GFP M9 (Y49, 50A) on 293FT cells (P20138 other isoform, or with tags, fused parts or gaps mutant): as the sequence (P20138 18-364 V25M) above, with M8V, Y32A, Y33A counted along it

[19] = molecular target: Mutant CD33-GFP N20D on 293FT cells (UniProt P20138); test: FACS, mutant CD33-GFP on 293FT cells
Sequence of Mutant CD33-GFP N20D on 293FT cells (P20138 18-364 N20D): as the sequence (P20138 18-364 V25M) above, with N3D, M8V counted along it

[20] = molecular target: T1, Mutant CD33-GFP M1 (W22A) on 293FT cells (UniProt P20138 18-364); test: FACS, mutant CD33-GFP on 293FT cells
T1 construct: whole, on cells; not shown: GFP fused to CD33
T1 sequence (P20138 18-364 W22A): as the sequence (P20138 18-364 V25M) above, with W5A, M8V counted along it

[21] = molecular target: T2, Mutant CD33-GFP M2 (H45E) on 293FT cells (UniProt P20138 18-364); test: FACS, mutant CD33-GFP on 293FT cells
T2 construct: whole, on cells; not shown: GFP fused to CD33
T2 sequence (P20138 18-364 H45E): as the sequence (P20138 18-364 V25M) above, with M8V, H28E counted along it

[22] = molecular target: T3, Mutant CD33-GFP M3 (N99A) on 293FT cells (UniProt P20138 18-364); test: FACS, mutant CD33-GFP on 293FT cells
T3 construct: whole, on cells; not shown: GFP fused to CD33
T3 sequence (P20138 18-364 N99A): as the sequence (P20138 18-364 V25M) above, with M8V, N82A counted along it

[23] = molecular target: T4, Mutant CD33-GFP M6 (F43N) on 293FT cells (UniProt P20138 18-364); test: FACS, mutant CD33-GFP on 293FT cells
T4 construct: whole, on cells; not shown: GFP fused to CD33
T4 sequence (P20138 18-364 F43N): as the sequence (P20138 18-364 V25M) above, with M8V, F26N counted along it

[24] = molecular target: T5, Mutant CD33-GFP M7 (R98D) on 293FT cells (UniProt P20138 18-364); test: FACS, mutant CD33-GFP on 293FT cells
T5 construct: whole, on cells; not shown: GFP fused to CD33
T5 sequence (P20138 18-364 R98D): as the sequence (P20138 18-364 V25M) above, with M8V, R81D counted along it

[25] = molecular target: T6, Mutant CD33-GFP M8 (K52A) on 293FT cells (UniProt P20138 18-364); test: FACS, mutant CD33-GFP on 293FT cells
T6 construct: whole, on cells; not shown: GFP fused to CD33
T6 sequence (P20138 18-364 K52A): as the sequence (P20138 18-364 V25M) above, with M8V, K35A counted along it

[26] = molecular target: Biotinylated CD33 protein (UniProt P20138); test: Octet competition on biotinylated CD33; competitor 348
Sequence of Biotinylated CD33 protein (P20138 18-259 limits assumed): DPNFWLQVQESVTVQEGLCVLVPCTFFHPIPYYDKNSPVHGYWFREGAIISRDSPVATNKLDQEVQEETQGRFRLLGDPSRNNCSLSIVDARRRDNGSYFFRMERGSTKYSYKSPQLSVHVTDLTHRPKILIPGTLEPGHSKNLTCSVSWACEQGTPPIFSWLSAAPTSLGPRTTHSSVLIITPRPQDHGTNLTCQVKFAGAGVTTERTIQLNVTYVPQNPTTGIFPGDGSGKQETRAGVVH

[27] = molecular target: Biotinylated CD33 protein (UniProt P20138); test: Octet competition on biotinylated CD33; competitor 353
[28] = molecular target: Biotinylated CD33 protein (UniProt P20138); test: Octet competition on biotinylated CD33; competitor 389
[29] = molecular target: Biotinylated CD33 protein (UniProt P20138); test: Octet competition on biotinylated CD33; competitor 413
[30] = molecular target: Biotinylated CD33 protein (UniProt P20138); test: Octet competition on biotinylated CD33; competitor 416
[31] = molecular target: Biotinylated CD33 protein (UniProt P20138); test: Octet competition on biotinylated CD33; competitor 420
[32] = molecular target: Biotinylated CD33 protein (UniProt P20138); test: Octet competition on biotinylated CD33; competitor 424
[33] = molecular target: Biotinylated CD33 protein (UniProt P20138); test: Octet competition on biotinylated CD33; competitor 429
[34] = molecular target: Biotinylated CD33 protein (UniProt P20138); test: Octet competition on biotinylated CD33; competitor 430
[35] = molecular target: Biotinylated CD33 protein (UniProt P20138); test: Octet competition on biotinylated CD33; competitor h195
[36] = molecular target: T7, CD33 on MOLM-13 cells (human, UniProt P20138 18-364); test: FACS, MOLM-13 cells expressing CD33 against MOLM-13 CD33 knockout
T7 construct: whole, on cells; also called MOLM-13 cell line expressing CD33; wild-type MOLM-13 cells (CD33+)
T7 sequence (P20138 18-364): as the sequence (P20138 18-364 V25M) above, with M8V counted along it
From the text: A naïve llama phage library was panned and screened to identify single domain antibodies that specifically recognize CD33. A MOLM-13 cell line expressing CD33 was used as a CD33-positive cell line, and a MOLM-13 cell line harboring a knockout of CD33 was used as a CD-33 negative cell line. A purified anti-human CD33 antibody was used as a positive control. Specific binding activity of identified binders was confirmed by FACS. The heavy chain variable region sequences of the identified binders are included herein.

[37] = molecular target: Biotinylated CD33 protein (UniProt P20138); test: Octet competition on biotinylated CD33; competitor 426

Sequence of Mutant CD33-GFP JS24 (Q24E) on 293FT cells (P20138 18-364 Q24E): as the sequence (P20138 18-364 V25M) above, with Q7E, M8V counted along it
Sequence of CD33-GFP fusion protein, wild type (WT), on 293FT cells (P20138 18-364): as the sequence (P20138 18-364 V25M) above, with M8V counted along it
Sequence of Mutant CD33-GFP JS23 (L23N) on 293FT cells (P20138 18-364 L23N): as the sequence (P20138 18-364 V25M) above, with L6N, M8V counted along it

Row | Binder | FACS binding data [1] | FACS binding data [2] | FACS binding data [3] | FACS binding data [4] | FACS binding data [5] | FACS binding data [6] | FACS binding data [7] | FACS binding data [8] | FACS binding data [9] | FACS binding data [10] | FACS binding data [11] | FACS binding data [12] | FACS binding data [13] | FACS binding data [14] | FACS binding data [15] | FACS binding data [16] | FACS binding data [17] | FACS binding data [18] | FACS binding data [19] | FACS binding data [20] | also measured
1 | sdCD33_9 (VHH, sdAb from a naive llama phage library; also called 426; sdAb426) VHH: QVKLEESGGGLVRAGGSLRLSCAASGGTFSTYAMAWFRQAPGKEREFVAAITWGGGSTYYEDSVKGRFTISRDNAKNTGVLQMNNLDVDDTAVYYCYAFGRSRAGDANGDYWGQGTQVTVSS | 99.2 | 99.2 | 99.4 | 99.7 | 99.7 | 96.1 | 77.8 | 99.2 | 99.3 | 99.2 | 99.3 | 99 | 99.1 | 99.3 | 99.8 | 95.9 | 1.2 | 1.25 | 99.1 | 99.5 | FACS binding data [21]: 97.7; FACS binding data [22]: 99.5; FACS binding data [23]: 99.2; FACS binding data [24]: 99.1; FACS binding data [25]: 96.8; Octet signal [26]: 0.183; Octet signal [27]: 0.259; Octet signal [28]: 0.53; Octet signal [29]: 0.257; Octet signal [30]: 0.304; Octet signal [31]: 0.191; Octet signal [32]: 0.0441; Octet signal [33]: 0.0225; Octet signal [34]: 0.538; Octet signal [35]: 0.743; binding result [36]: binds
2 | sdCD33_7 (VHH, sdAb from a naive llama phage library; also called 420; sdAb420) VHH: EVQLVESGGGLVQPGGSLRLSCVASGFTFKDYGMTWVRQAPGKALEWVSDINSAGDGIYYSDSVKGRFTISRDDSKGTLYLQMNSLTPEDTAIYYCAAERQRAGDVKRSLAPITAHIWGQGTQVTVSS | 98.6 | 98.7 | 99.1 | 99.5 | 99.6 | 98.1 | 72.4 | 98.7 | 98.8 | 98.7 | 98.9 | 98.5 | 99.1 | 99.1 | 99.4 | 97.8 | 0.15 | 34.6 | 99.1 | 98.4 | FACS binding data [21]: 91.5; FACS binding data [22]: 98.9; FACS binding data [23]: 98.3; FACS binding data [24]: 74.8; FACS binding data [25]: 8.64; Octet signal [26]: 0.139; Octet signal [27]: 0.183; Octet signal [28]: 0.376; Octet signal [29]: 0.2; Octet signal [30]: -0.094; Octet signal [32]: -0.0931; Octet signal [37]: 0.0276; Octet signal [33]: -0.124; Octet signal [34]: 0.457; Octet signal [35]: 0.579; binding result [36]: binds
3 | sdCD33_8 (VHH, sdAb from a naive llama phage library; also called 424; sdAb424) VHH: QVQLVESGGGLVQAGGSLRLSCAASGGAFSTYTMGWFRQAPGKEREFVAAIAWTGTHTYYSDSVKGRFTISRDNDKNTVFLQMNSLKPEDTAVYYCAQASSRYRAVTDSLSENHWGPGTQVTVST | 98.6 | 97.8 | 99.4 | 99.6 | 99.6 | 83.7 | 65.9 | 98.8 | 99.1 | 98.8 | 98.7 | 98.5 | 99 | 70.2 | 99.5 | 98.6 | 0.07 | 0.23 | 98.3 | 80.1 | FACS binding data [21]: 97.3; FACS binding data [22]: 3.43; FACS binding data [23]: 98.6; FACS binding data [24]: 97.2; FACS binding data [25]: 95.4; Octet signal [26]: 0.154; Octet signal [27]: 0.444; Octet signal [28]: 0.356; Octet signal [29]: 0.37; Octet signal [30]: 0.086; Octet signal [31]: 0.266; Octet signal [37]: 0.239; Octet signal [33]: 0.163; Octet signal [34]: 0.733; Octet signal [35]: 0.648; binding result [36]: binds
